The target in test [1] is T1, human MOG (hMOG) expressed on HEK293, Expi293F or L929 cells (human, UniProt Q16653 30-247).
T1 construct: also called hMOG/HEK293; hMOG/HEK293F
T1 chain: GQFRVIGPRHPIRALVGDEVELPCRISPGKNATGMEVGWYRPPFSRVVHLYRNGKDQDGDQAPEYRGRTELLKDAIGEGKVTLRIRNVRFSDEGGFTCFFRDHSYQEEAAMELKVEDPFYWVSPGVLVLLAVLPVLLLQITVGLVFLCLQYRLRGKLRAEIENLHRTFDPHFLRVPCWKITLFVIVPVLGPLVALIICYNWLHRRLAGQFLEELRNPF
As to the kind of experiment: phage clone on hMOG/Expi293F cells.

In test [2] the target is extracellular domain protein of human MOG to which FLAG-Fc is added at the C-terminus (hMOG-FLAG-Fc) (human). As to the kind of experiment: phage ELISA.
Test [3] addresses T1, human MOG (hMOG) expressed on HEK293, …. As to the kind of experiment: flow cytometry on L929 cells expressing human MOG (hMOG/L929); antibody titrated, RPE-labelled goat anti-human antibody. An excerpt:
pEF6_hMOG obtained in Example 5 was introduced to mouse connective tissue-derived fibroblast L929 cells [American Type Culture Collection (ATCC) No.: CCL-1] using HilyMax (manufactured by Dojindo Laboratories). The gene-transfected cells were selected using an antibiotic substance, Blasticidin (manufactured by Invitrogen) and then cloned by the limiting dilution method. Using the L929 cells expressing hMOG on the cell surface (abbreviated as hMOG/L929 below), the reactivities of the bispecific antibodies were analyzed by the method described below.
The hMOG/L929 cells were suspended in a Staining Buffer (SB) of PBS containing 0.1% NaN₃ and 1% FBS and dispensed to a round-bottom 96-well plate (manufactured by Becton Dickinson). […] After suspending the pellets, the plate was left to stand at ice temperature for 30 minutes. The supernatants were removed after further centrifugation (2000 rpm, 4° C., two minutes), and the pellets were washed with SB. Then, 1 μg/mL RPE fluorescently labeled goat anti-human antibody (manufactured by Southern Biotech) was added, and the plate was incubated at ice temperature for 30 minutes. After washing with SB, the cells were suspended in SB, and the fluorescence intensities of the cells were measured with a flow cytometer FACS CANTO II (manufactured by Becton Dickinson). The results are shown in FIGS. 12A to 12C and FIGS. 13A and 13B.
Background: In flow cytometry, cells or beads pass a laser one at a time.

B1: MOG316 (scFv phage clone similar to MOG310 antibody) (scFv)
scFv: EVQLVQSGAEVKKPGSSVKVSCKASGGTFSRYAISWVRQAPGQGLEWMGGIIPMFNTANYAQKFQGRVTITADESTSTAYMELSSLRSEDTAVYYCARDWAVAGMGFNYWGQGTLVTVSSGGGGSGGRASGGGGSDIQMTQSPSSLSASVGDRVTITCRASQGINSALAWYQQKPGKAPKLLIYAASSLQSGVPSRFSGSGSGTDFTLTISSLQPEDFATYYCQQYNSYPITFGQGTRLEIK
B1: the binding result in test [1] and in test [2] was “binds” throughout.

B2: MOG357 (scFv phage clone similar to MOG303 antibody) (scFv)
scFv: EVQLVETGGGLVQPGGSLRLSCAASGFTFSSYAMSWVRQAPGKGLEWVSDINHSGGSTYYADSVKGRFTISRDNSKHTLYLQMNSLRAEDTAVYYCAKDYYDILTGSFFDYWGQGTLVTVSSGGGGSGGRASGGGGSDIVMTQSPSSLSASVGDRVTITCRASQGISSALAWYQQKPGKAPKLLIYDASSLESGVPSRFSGSGSGTDFTLTISSLQPEDFATYYCQQFNSYPWTFGQGTKVEIK
Regarding B2, the binding result in test [1] and in test [2] was “binds” throughout.

B3: MOG426 (scFv phage clone similar to MOG301 antibody) (scFv)
scFv: QVQLVQSGAEVKKPGASVKVSCKASGYSFNSYGINWVRQAPGQGLEWMGWISAYTGKTSYAQKVQGRVTMTTDRSTSTAYMELRSLRSDDTAMYYCAREYDILTGYSDAFDTWGQGTMVTVSSGGGGSGGRASGGGGSEIVLTQSPATLSLSPGERATLSCRASQSVSSYLAWYQQKPGQAPRLLIYDASNRATGIPARFSGSGSGTDFTLTISSLEPEDFAVYYCQQRGNWPLTFGGGTKLEIK
For the molecule B3, the binding result in test [1] and in test [2] was “binds” in each case.

B4: MOG329 antibody (anti-MOG scFv displayed on phage, pCANTAB_MOG329) (scFv)
scFv: QVQLVESGGGLVQPGGSLRLSCAASGFAFRNYAMNWVRQAPGKGLEWVSAISGSGGSTYYADSVKGRFTISRDNSKNTLYLQMNSLRAEDTAVYYCARDYGGISPFDYWGQGTLVTVSSGGGGSGGRASGGGGSDIQLTQSPSSLSASVGDRVTITCRASQGISSALAWYQQKPGKAPKLLIYDASSLESGVPSRFSGSGSGTDFTLTISSLQPEDFATYYCQQFNSYPHTFGQGTKVDIK
Consider B4, for which the binding result in test [1] and in test [2] was “binds” each time.

B5: MOG314 (scFv phage clone similar to MOG303 antibody) (scFv)
scFv: QVQLVESGGGLVQPGGSLRLSCAASGFTFSSYAMSWVRQAPGKGLEWVSAISGRGSSTYYADSVKGRFTISRDNSKNTLYLQMNSLRAEDTAVYYCAKGYYDILTGSFFDYWGQGTLVTVSSGGGGSGGRASGGGGSDIQLTQSPSSLSASVGDRVTITCRASQGISSALAWYQQKPGKAPKLLIYDASSLESGVPSRFSGSGSGTDFTLTISSLQPEDFATYYCQQFNSYPYTFGQGTKLEIK
In the case of B5, the binding result in test [1] and in test [2] was “binds” each time.

B6: MOG476 (scFv phage clone similar to MOG303 antibody) (scFv)
scFv: EVQLVESGGGLVQPGGSLRLSCAASGFTFSSYAMNWVRQAPGKGLEWVSAISYSGRSTYYADSVKGRFTISRDNSKNTLYLQMNSLRAEDTAVYYCAKGLYDILTGGGFDYWGQGTLVTVSSGGGGSGGRASGGGGSDIQMTQSPSSLSASVGDRVTITCRASQGISSALAWYQQKPGKAPKLLIYDASSLESGVPSRFSGSGSGTDFTLTISSLQPEDFATYYCQQFNSYPSTFGQGTRLEIK
Turning to B6, the binding result in test [1] and in test [2] was “binds” each time.

B7: MOG315 (scFv phage clone similar to MOG303 antibody) (scFv)
scFv: EVQLVESGGGLVQPGGSLRLSCAASGFTFSTYAMSWVRQAPGKGLEWVSAISGSGVSTYYADSVKGRFTLSRDNSKNTLYLQMNSLRAEDTAVYYCAKAYYDILTGNFLDYWGQGTLVTVSSGGGGSGGRASGGGGSAIQLTQSPSSLSASVGDRVTITCRASQGISSALAWYQQKPGKAPKLLIYDASSLESGVPSRFSGSGSGTDFTLTISSLQPEDFATYYCQQFNSYPLTFGGGTKVEIK
Regarding B7, the binding result in test [1] and in test [2] was “binds” throughout.

B8: AVM IgG4PE(R409K)_MOG01dscFv2 antibody (bispecific antibody)
heavy: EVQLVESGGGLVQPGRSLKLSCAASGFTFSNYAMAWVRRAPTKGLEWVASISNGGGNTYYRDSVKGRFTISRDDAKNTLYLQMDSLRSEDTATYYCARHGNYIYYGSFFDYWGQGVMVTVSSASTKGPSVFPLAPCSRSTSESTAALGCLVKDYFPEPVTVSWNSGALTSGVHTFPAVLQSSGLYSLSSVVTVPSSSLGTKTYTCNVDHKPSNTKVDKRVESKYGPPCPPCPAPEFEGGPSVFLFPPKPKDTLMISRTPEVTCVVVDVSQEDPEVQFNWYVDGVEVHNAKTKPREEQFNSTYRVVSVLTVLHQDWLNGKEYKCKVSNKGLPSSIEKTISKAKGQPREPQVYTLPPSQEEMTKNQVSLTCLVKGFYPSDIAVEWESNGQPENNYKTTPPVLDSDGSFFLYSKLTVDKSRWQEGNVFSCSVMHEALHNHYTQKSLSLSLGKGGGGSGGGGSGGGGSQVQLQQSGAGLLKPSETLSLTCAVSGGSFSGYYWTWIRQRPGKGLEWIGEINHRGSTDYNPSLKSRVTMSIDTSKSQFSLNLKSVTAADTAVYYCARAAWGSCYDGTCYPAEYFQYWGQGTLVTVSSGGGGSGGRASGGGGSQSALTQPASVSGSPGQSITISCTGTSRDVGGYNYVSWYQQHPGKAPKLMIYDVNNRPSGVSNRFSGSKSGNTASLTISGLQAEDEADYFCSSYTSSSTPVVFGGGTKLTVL
light: QFVLSQPNSVSTNLGSTVKLSCKRSTGNIGSNYVSWYQQHEGRSPTTMIYRDDKRPDGVPDRFSGSIDRSSDSALLTINNVQTEDEADYFCQSYSSGINIFGGGTKLTVLGQPKAAPSVTLFPPSSEELQANKATLVCLISDFYPGAVTVAWKADSSPVKAGVETTTPSKQSNNKYAASSYLSLTPEQWKSHRSYSCQVTHEGSTVEKTVAPTECS
notes: also called pCI-AVM-hLG4PE(R409K)_MOG01scFv2
For B8, the binding result in test [3] is listed as “binds”.

B9: AVM IgG4PE(R409K)_MOG01dscFv8 antibody (bispecific antibody)
heavy: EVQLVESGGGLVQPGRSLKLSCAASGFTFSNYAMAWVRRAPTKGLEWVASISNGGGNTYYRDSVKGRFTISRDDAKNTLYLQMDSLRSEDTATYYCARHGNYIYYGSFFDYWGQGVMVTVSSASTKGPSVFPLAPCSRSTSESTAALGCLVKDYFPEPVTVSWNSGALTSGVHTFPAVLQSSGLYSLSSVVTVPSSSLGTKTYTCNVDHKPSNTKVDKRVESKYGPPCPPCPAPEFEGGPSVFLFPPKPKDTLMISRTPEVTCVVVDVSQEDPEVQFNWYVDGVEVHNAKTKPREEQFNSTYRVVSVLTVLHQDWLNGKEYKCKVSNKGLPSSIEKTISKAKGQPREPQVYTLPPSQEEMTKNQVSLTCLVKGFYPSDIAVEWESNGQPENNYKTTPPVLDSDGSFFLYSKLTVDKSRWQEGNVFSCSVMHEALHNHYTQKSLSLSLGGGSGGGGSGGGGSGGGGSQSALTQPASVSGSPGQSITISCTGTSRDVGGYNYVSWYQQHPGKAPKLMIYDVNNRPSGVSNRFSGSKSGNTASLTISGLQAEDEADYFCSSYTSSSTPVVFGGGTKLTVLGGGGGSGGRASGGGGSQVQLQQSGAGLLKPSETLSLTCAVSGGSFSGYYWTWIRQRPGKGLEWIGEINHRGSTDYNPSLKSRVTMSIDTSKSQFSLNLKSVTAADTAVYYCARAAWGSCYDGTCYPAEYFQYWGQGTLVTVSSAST
light: QFVLSQPNSVSTNLGSTVKLSCKRSTGNIGSNYVSWYQQHEGRSPTTMIYRDDKRPDGVPDRFSGSIDRSSDSALLTINNVQTEDEADYFCQSYSSGINIFGGGTKLTVLGQPKAAPSVTLFPPSSEELQANKATLVCLISDFYPGAVTVAWKADSSPVKAGVETTTPSKQSNNKYAASSYLSLTPEQWKSHRSYSCQVTHEGSTVEKTVAPTECS
notes: also called pCI-AVM-hLG4PE(R409K)_MOG01scFv8
Regarding B9, the binding result in test [3] is “binds”.

B10: AVM IgG4PE(R409K)_MOG01dscFv9 antibody (bispecific antibody)
heavy: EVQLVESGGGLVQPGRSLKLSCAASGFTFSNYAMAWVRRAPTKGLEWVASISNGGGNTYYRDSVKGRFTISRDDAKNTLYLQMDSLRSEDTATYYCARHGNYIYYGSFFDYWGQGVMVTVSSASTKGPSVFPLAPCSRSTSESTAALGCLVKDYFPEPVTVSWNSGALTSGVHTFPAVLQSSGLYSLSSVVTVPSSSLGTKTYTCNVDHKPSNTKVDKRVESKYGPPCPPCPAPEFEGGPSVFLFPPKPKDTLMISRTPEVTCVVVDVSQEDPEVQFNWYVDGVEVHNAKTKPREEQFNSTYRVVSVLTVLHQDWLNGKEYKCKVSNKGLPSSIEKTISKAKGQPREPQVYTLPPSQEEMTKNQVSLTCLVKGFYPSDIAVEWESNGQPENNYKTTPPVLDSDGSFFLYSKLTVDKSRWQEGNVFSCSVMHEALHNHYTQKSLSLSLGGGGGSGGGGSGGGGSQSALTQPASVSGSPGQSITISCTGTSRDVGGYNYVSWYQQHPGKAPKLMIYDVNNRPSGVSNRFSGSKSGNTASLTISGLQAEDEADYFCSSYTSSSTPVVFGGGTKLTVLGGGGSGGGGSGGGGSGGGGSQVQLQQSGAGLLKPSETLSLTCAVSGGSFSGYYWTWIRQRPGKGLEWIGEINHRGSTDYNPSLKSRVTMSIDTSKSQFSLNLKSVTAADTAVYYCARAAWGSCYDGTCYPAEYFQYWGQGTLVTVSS
light: QFVLSQPNSVSTNLGSTVKLSCKRSTGNIGSNYVSWYQQHEGRSPTTMIYRDDKRPDGVPDRFSGSIDRSSDSALLTINNVQTEDEADYFCQSYSSGINIFGGGTKLTVLGQPKAAPSVTLFPPSSEELQANKATLVCLISDFYPGAVTVAWKADSSPVKAGVETTTPSKQSNNKYAASSYLSLTPEQWKSHRSYSCQVTHEGSTVEKTVAPTECS
notes: also called pCI-AVM-hLG4PE(R409K)_MOG01scFv9
For B10, the binding result in test [3] was “binds”.

B11: AVM IgG4PE(R409K)_MOG01dscFv4 antibody (bispecific antibody)
heavy: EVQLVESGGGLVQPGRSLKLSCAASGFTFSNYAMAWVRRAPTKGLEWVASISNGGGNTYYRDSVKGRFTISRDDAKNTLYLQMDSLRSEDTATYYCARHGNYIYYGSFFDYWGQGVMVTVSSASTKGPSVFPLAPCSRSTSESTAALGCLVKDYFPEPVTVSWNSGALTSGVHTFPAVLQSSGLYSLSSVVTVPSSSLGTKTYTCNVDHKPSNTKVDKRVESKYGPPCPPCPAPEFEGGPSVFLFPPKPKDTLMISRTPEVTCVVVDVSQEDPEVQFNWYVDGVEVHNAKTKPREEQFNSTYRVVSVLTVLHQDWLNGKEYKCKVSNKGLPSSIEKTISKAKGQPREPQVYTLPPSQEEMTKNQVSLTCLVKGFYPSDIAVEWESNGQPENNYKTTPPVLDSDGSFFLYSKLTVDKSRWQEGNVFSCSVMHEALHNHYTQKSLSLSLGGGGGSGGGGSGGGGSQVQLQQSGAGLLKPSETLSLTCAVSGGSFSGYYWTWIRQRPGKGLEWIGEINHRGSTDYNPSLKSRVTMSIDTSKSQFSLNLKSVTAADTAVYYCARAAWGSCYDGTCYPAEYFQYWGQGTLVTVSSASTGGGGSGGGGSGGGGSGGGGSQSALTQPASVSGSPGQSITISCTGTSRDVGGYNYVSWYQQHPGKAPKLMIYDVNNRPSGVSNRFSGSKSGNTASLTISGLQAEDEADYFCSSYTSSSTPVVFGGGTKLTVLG
light: QFVLSQPNSVSTNLGSTVKLSCKRSTGNIGSNYVSWYQQHEGRSPTTMIYRDDKRPDGVPDRFSGSIDRSSDSALLTINNVQTEDEADYFCQSYSSGINIFGGGTKLTVLGQPKAAPSVTLFPPSSEELQANKATLVCLISDFYPGAVTVAWKADSSPVKAGVETTTPSKQSNNKYAASSYLSLTPEQWKSHRSYSCQVTHEGSTVEKTVAPTECS
notes: also called pCI-AVM-hLG4PE(R409K)_MOG01scFv4
Regarding B11, the binding result in test [3] was “binds”.

B12: MOG338 (scFv phage clone similar to MOG310 antibody) (scFv)
scFv: QVQLVQSGAEVKKPGSSVKVSCKASGGTFSRYAISWVRQAPGQGLEWMGGIIPMFNTANYAQKFQGRVTITADESTSTAYMELSSLRSEDTAVYYCARDWAVAGMGFDPWGQGTLVTVSSGGGGSGGRASGGGGSEIVLTQSPATLSLSPGERATLSCRASQSVSSYLAWYQQKPGQAPRLLIYDASNRATGIPARFSGSGSGTDFTLTISSLEPEDFAVYYCQQRNNWPLTFGGGTKLEIK
Consider B12, for which the binding result in test [1] and in test [2] was “binds” each time.

B13: MOG470 (scFv phage clone similar to MOG329 antibody) (scFv)
scFv: QVQLVESGGGLVQPGGSLRLSCAASGFTFSSYAMNWVRQAPGKGLEWVSAISGSGGSTYYADSVKGRFTISRDNSKNTLYLQVNSLRAEDTAVYYCARDYGGISPFDYWGQGTLVTVSSGGGGSGGRASGGGGSEIVMTQSPATLSLSPGERATLSCRASQSVSSYLAWYQQKPGQAPRLLIYDASNRATGIPARFSGSGSGTDFTLTISRLEPEDFAVYYCQQYGSSPYTFGQGTRLEIK
Turning to B13, the binding result in test [1] and in test [2] was “binds” throughout.

B14: MOG456 antibody (anti-MOG scFv displayed on phage, pCANTAB_MOG456) (scFv)
scFv: EVQLVESGGGLVKPGGSLRLSCAASGFTFSSYSMHWVRQAPGKGLEWVSSIGSRSRYIYYADSVKGRFTISRDNAKNSLYLQMNSLRAEDTAVYYCAKGYYDILTGSLFDYWGQGTLVTVSSGGGGSGGRASGGGGSDIVMTQSPSSLSASVGDRVTITCRASQGISSALAWYQQKPGKAPKLLIYDASSLESGVPSRFSGSGSGTDFTLTISSLQPEDFATYYCQQFNSYPWTFGQGTKVEIK
Take B14: the binding result in test [1] and in test [2] was “binds” in each case.

B15: MOG352 (scFv phage clone similar to MOG310 antibody) (scFv)
scFv: EVQLVQSGAEVKKPGSSVKVSCKASGGTFSRYAINWVRQAPGQGLEWMGGIIPMFSTVNYAQKFQGRVTITADESTSTAYMELSSLRSEDTAVYYCARDWAVAGMGFDYWGQGTLVTVSSGGGGSGGRASGGGGSAIQMTQSPSSVSASVGDRVTITCRASQGISSWLAWYQHKPGKAPKSLIYAASSLQSGVPSRFSGSGSGTDFTLTISSLQPEDFATYYCQQYNSYPLTFGGGTKVDIK
For the molecule B15, the binding result in test [1] and in test [2] was “binds” in each case.

B16: MOG308 (scFv phage clone similar to MOG310 antibody) (scFv)
scFv: EVQLVQSGAEVRKSGSSVKVSCKASGGTFSRYAISWVRQAPGQGLEWMGGIIPMFSTTNYAQKFQGRVTITADESTSTAYMELSSLRSEDTAVYYCARDWAVAGMGFAYWGQGTLVTVSSGGGGSGGRASGGGGSEIVMTQSPATLSLSPGERATLSCRASQSVSSYLAWYQQKPGQAPRLLIYDASNRATGIPARFSGSGSGTDFTLTISSLEPEDFAVYYCQQRSNWPPTFGQGTKVDIK
Consider B16, for which the binding result in test [1] and in test [2] was “binds” throughout.

For the origin of these results see patent US20260092110A1 (Kyowa Kirin, published 2026).
